B1: Escherichia coli FrmR (EcFrmR) (natural protein, Escherichia coli K-12, UniProt P0AAP3 2-91, looked up)
chain: PSTPEEKKKVLTRVRRIRGQIDALERSLEGDAECRAILQQIAAVRGAANGLMAEVLESHIRETFDRNDCYSREVSQSVDDTIELVRAYLK
notes: FrmR, transcriptional repressor of the frmRAB operon, E. coli K-12; last residue Lys91; frmR amplified from E. coli K12 genomic DNA and ligated into pET22b at NdeI and NcoI; no tag is mentioned and the measured mass fits the untagged protein without Met1; source: E. coli expression strains (JRG6782, 6783 and 6784), frmR in pET22b, purified (Heparin-HP, HiLoad Superdex 200)
B2: EcFrmR(P2A) (natural protein, Escherichia coli K-12, UniProt P0AAP3 2-91, looked up)
chain: ASTPEEKKKVLTRVRRIRGQIDALERSLEGDAECRAILQQIAAVRGAANGLMAEVLESHIRETFDRNDCYSREVSQSVDDTIELVRAYLK
notes: FrmR, E. coli K-12, with P2A; Mutation made by overlap PCR or Quikchange; also called P2A variant; source: E. coli expression strains (JRG6782, 6783 and 6784), purified (Heparin-HP, HiLoad Superdex 200)
B3: EcFrmR(C35A) (natural protein, Escherichia coli K-12, UniProt P0AAP3 2-91, looked up)
chain: PSTPEEKKKVLTRVRRIRGQIDALERSLEGDAEARAILQQIAAVRGAANGLMAEVLESHIRETFDRNDCYSREVSQSVDDTIELVRAYLK
notes: FrmR, E. coli K-12, with C35A; Mutation made by overlap PCR or Quikchange; also called C35A variant; source: E. coli expression strains (JRG6782, 6783 and 6784), purified (Heparin-HP, HiLoad Superdex 200)

Target: the molecule itself
Assay: SEC; calibrated size exclusion chromatography column; elution volume compared with standards

Stoichiometry N, 4:
B1
B2
B3
